Target: T1, uniformly 15N,13C-labelled wild-type SARS-CoV-2 NSP9 with an additional GlyAlaMetGly tetrapeptide at the … (SARS-CoV-2, UniProt P0DTD1 1-7096)
T1 construct: mature
Assay: 15N-1H HSQC NMR titration at 278 K

B1: nanobody 2NSP23 (VHH)
VHH: QVQLQESGGGLVQPGGSLRLSCAASGLAFSMYTMGWFRQAPGKEREFVAMIISSGDSTDYADSVKGRFTISRDNGKNTVYLQMDSLKPEDTAVYYCAAPKFRYYFSTSPGDFDSWGQGTQVTVSS
notes: also called 2NSP23 with His Tag
Question: Which “backbone amide cross-peaks that survive at protein/nanobody ratio 1:2” value does the source give for B1 here?
Answer: ~35%
